The results in this text go back to publication PMC6997759 (2019).

For one assay, the target named is B.MNgp120Δ11. Description: SPR; apparent affinity. In general terms: SPR reads the build-up and loss of mass on a sensor chip optically.
Assay [1] addresses AE.A244gp120Δ11 (N-terminal 11 aa deleted) (HIV-1 (clade AE, A244)). As to the kind of experiment: SPR; apparent affinity.

B1: DH677.3 MAb (antibody, V domains shown)
VH: QVQLVQSGAEVQKPGASVKVSCKASGYTFASYDINWVRQATGQGLEWMGWMNPKTGNTGYAQKFQGRVTLTRNTSISTAYMELTSLRSEDTAVYYCATYRIIAAVGYRYFQYWGQGTLVTVSS
VL: DIQLTQSPSSLSASVGDSVTITCRASQGFGNYLAWYQQRPGKVPEVLIYAATTLQSGVPSRFSGSGSGTDFTLTISSLQPEDVATYYCQKYNSAPFTFGQGTRLEIK
Regarding B1, the Kd in the assay with B.MNgp120Δ11 was determined as 7.02 nM; in assay [1], 0.6 nM.
